Data as given in patent US20030207263, “Method of screening therapeutic agents” (published 2003).

Key:
GST-Smad2 full length = GST-Smad2 full length (UniProt Q15796 Q15796:1-467); test: EMSA; conditions: tags: GST, E. coli; label: 33P
Smad2 = Smad2 (Homo sapiens, UniProt Q15796 Q15796:1-467); test: EMSA; conditions: label: 33P
GST-Smad1 full length = GST-Smad1 full length (UniProt Q15797 Q15797:1-465); test: EMSA; conditions: tags: GST, E. coli; label: 33P
Smad3 = Smad3 (Homo sapiens, UniProt P84022 P84022:1-425); test: EMSA; not fused to GST; conditions: label: 33P
GST-Smad4 full length = GST-Smad4 full length (UniProt Q13485 Q13485:1-552); test: EMSA; direct and specific; conditions: tags: GST, E. coli; label: 33P
Sequence of GST-Smad4 full length (Q13485 whole entry, one chain of several): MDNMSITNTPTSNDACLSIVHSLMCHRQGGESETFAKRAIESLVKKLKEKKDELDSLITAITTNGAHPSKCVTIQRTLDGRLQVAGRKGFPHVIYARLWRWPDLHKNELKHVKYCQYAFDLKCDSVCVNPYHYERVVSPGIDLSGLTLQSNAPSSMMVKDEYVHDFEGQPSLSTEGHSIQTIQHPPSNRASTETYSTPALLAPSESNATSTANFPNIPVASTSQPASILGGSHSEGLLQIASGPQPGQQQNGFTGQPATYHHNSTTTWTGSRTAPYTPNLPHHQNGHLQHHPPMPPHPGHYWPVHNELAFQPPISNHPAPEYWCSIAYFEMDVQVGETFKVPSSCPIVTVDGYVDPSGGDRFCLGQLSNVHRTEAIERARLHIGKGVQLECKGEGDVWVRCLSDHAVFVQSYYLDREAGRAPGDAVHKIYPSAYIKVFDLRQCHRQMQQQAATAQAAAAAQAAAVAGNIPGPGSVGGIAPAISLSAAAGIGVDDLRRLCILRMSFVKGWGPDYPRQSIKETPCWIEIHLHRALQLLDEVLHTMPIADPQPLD

Sequence of Smad2 (Q15796 whole entry, one chain of several): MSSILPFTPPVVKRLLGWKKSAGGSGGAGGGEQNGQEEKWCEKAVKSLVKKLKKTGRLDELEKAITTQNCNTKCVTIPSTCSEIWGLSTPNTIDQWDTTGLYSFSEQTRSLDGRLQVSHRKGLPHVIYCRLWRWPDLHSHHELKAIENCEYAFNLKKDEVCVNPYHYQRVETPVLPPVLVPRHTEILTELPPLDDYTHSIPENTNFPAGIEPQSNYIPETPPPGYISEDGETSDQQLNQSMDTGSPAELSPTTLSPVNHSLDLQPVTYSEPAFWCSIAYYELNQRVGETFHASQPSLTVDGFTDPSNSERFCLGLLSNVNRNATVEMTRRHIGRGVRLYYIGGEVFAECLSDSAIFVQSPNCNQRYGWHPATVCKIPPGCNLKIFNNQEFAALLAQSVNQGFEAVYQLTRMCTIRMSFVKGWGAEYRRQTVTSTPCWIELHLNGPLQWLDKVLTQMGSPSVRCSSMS
Sequence of GST-Smad2 full length (Q15796 whole entry, one chain of several): as above
Sequence of Smad3 (P84022 whole entry, the tested form may be a part, one chain of several): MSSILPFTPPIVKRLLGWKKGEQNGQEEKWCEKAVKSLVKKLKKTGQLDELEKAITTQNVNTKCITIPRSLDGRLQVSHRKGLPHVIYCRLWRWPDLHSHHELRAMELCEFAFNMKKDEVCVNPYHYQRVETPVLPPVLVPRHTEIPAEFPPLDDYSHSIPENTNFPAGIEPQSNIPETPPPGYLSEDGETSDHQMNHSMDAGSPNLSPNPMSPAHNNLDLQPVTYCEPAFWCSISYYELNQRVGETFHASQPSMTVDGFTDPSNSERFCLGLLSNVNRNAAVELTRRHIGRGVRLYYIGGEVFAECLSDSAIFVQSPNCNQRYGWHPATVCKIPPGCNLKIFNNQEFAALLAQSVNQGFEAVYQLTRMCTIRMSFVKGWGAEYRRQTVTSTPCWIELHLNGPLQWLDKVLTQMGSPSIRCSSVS
Sequence of GST-Smad1 full length (Q15797 whole entry, the tested form may be a part, one chain of several): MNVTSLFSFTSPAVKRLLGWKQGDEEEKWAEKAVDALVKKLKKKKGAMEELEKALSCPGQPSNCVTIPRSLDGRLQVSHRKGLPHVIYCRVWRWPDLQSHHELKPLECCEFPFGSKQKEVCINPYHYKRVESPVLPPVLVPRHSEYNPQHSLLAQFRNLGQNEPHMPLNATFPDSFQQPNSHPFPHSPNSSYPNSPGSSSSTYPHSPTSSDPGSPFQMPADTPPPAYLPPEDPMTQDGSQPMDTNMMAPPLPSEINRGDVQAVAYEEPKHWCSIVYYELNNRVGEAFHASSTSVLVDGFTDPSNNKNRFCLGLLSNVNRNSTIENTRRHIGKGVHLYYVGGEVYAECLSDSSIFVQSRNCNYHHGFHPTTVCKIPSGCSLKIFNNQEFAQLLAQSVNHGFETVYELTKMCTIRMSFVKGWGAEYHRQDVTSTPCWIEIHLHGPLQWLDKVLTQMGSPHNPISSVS

B1: CAGA probe (dsDNA)
DNA 1: TCGAGAGCCAGACAAGGAGCCAGACAAGGAGCCAGACAC
DNA 2: GTGTCTGGCTCCTTGTCTGGCTCCTTGTCTGGCTCTCGA
GST-Smad2 full length
  binding result: no binding
Smad2
  binding result: no binding
GST-Smad1 full length
  binding result: no binding
Smad3
  binding result: binds
GST-Smad4 full length
  binding result: binds
